Experimental findings from patent US9365836B2, “Glycosyltransferase gene and use thereof” (SUNTORY HOLDINGS LIMITED, priority 2011, dated 2016) are described below.

Format in all cases: biochemical
Assay [1] can be described thus: Determination of enzyme activity of His-Tag-purified SuGT protein solutions from Salvia uliginosa (HPLC). As for the experimental part:
Escherichia coli expression constructs (pET-SuGT2, 5, 10) were created in a manner similar to that described in Example 5.
In a manner similar to that described in Example 5, “SuGT2 protein solution”, “SuGT5 protein solution” and “SuGT10 protein solution” were prepared.
[…] Subsequently, 200 μl of the stopping buffer (a 90% acetonitrile aqueous solution containing 0.1% TFA) was added to stop the reaction, and analyzed with a high performance liquid chromatography (Prominence (Shimadzu)). The detector used is Shimadzu PDA SPD-M10AVP, and the flavone was detected at 330 nm. The column used is Shim-Pack ODS 150 mm×4.6 mm (Shimadzu). In elution, solution A (a 0.1% TFA aqueous solution) and solution B (a 90% methanol aqueous solution containing 0.1% TFA) were used. A linear gradient from a 8:2 mixture of the two solutions to a 3:7 mixture over 10 minutes and then a 3:7 mixture over 6 minutes were used in elution. The flow rate was set at 0.6 ml/minute.

A short description of assay [2]: Reactivity to various flavonoid compounds and betanidine (FIG. 13).
A short description of assay [3]: Determination of enzyme activity of candidate glycosyltransferases, crude enzyme from Escherichia coli (HPLC). To be noted: crude enzyme solution, substrate apigenin, UDP-glucose, 30° C., 1 hour. As for the experimental part: pET-NmGT0 through pET-NmGT9 were introduced into Escherichia coli strain BL2 using the One Shot BL21 (DE3) (Invitrogen) according to a protocol recommended by the manufacturer to obtain transformed Escherichia coli. The Escherichia coli was cultured, using the Overnight Express Autoinduction System 1 (Novagen) according to a protocol recommended by the manufacturer. With 2 ml of the culture liquid prepared, the transformed Escherichia coli was cultured at 37° C. (about 4 hours) until the OD600 value reached 0.5. To this Escherichia coli solution as the preculture, 50 ml of the culture liquid was added and then subjected to the main culture overnight at 27° C. […]
80 μl of the crude enzyme solution, 20 μl of 5 mM UDP-glucose, 20 μl of 1M Tris HCl (pH 7.5), and 1 μl of 500 ng/μl apigenin were prepared on ice to 200 μl in water, and the reaction mixture obtained was maintained at 30° C. for 1 hour. Subsequently, 200 μl of the stopping buffer (a 90% acetonitrile aqueous solution containing 0.1% TFA) was added to stop the reaction, and analyzed with a high performance liquid chromatography (Prominence (Shimadzu)). The detector used is Shimadzu PDA SPD-M10AVP, and the flavone was detected at 330 nm. […]

A short description of assay [4]: Determination of enzyme activity of His-Tag-purified NmGT3 and NmGT4 protein solutions (HPLC). To be noted: for product biosynthesized from apigenin 7-glucoside: substrate 50 ng/μl apigenin 7-glucoside, same condition; for product biosynthesized from apigenin: substrate 500 ng/μl apigenin, UDP-glucose, 30° C., 20 minutes; for product biosynthesized from apigenin 4′-glucoside: substrate apigenin 4′-glucoside, same condition (not shown). As for the experimental part:
The Escherichia coli strain BL2 in which pET-NmGT3 or pET-NmGT4 described in Example 5 was introduced was cultured, using the Overnight Express Autoinduction System 1 (Novagen) according to a protocol recommended by the manufacturer. With 8 ml of the culture liquid prepared, the transformed Escherichia coli was cultured at 37° C. (about 4 hours) until the OD600 value reached 0.5. To this Escherichia coli solution as the preculture, 200 ml of the culture liquid was added and then subjected to the main culture overnight at 25° C.
The overnight-cultured Escherichia coli solution was centrifuged (1000×g, 4° C., 10 minutes), and the cells collected were suspended in 20 ml of a buffer (composition: NaCl: 0.5 M, Tris HCl (pH 7.9): 20 mM, imidazole: 5 mM, amidinophenyl methanesulfonyl fluoride hydrochloride (APMSF): 10 μM), and Escherichia coli was disrupted by sonication. The cells were then centrifuged (1400×g, 4° C., 20 minutes), and the supernatant was collected. The supernatant was passed through a 0.45 μm filter to His-Tag-purify using the Profinia (Bio-Rad) according to a protocol recommended by the manufacturer. The purified protein solution thus obtained was centrifuged (7500×g, 4° C., 15 minutes) using the Centrifugal filters (Ultracel-10K) (Amicon Ultra), and the concentrated protein solution was termed as “NmGT3 protein solution” and “NmGT4 protein solution”. For centrifugation, the Avanti HP-26 XP (rotor: JA-2) was used (BECKMAN COULTER).
20 μl of the protein solution, 20 μl of 5 mM UDP-glucose, 20 μl of 1M Tris HCl (pH 7.5), and 1 μl of 500 ng/μl apigenin were mixed and prepared on ice to 200 μl in water, and the reaction mixture obtained was maintained at 30° C. for 20 minutes. Subsequently, 200 μl of the stopping buffer (a 90% acetonitrile aqueous solution containing 0.1% TFA) was added to stop the reaction, and analyzed with a high performance liquid chromatography (Prominence (Shimadzu)). The detector used is Shimadzu PDA SPD-M10AVP, and the flavone was detected at 330 nm. The column used is Shim-Pack ODS 150 mm×4.6 mm (Shimadzu). In elution, solution A (a 0.1% TFA aqueous solution) and solution B (a 90% methanol aqueous solution containing 0.1% TFA) were used. A linear gradient from a 8:2 mixture of the two solutions to a 3:7 mixture over 10 minutes and then a 3:7 mixture over 6 minutes were used in elution. The flow rate was set at 0.6 ml/minute.

B1: SuGT5: Salvia uliginosa glycosyltransferase (SEQ ID NO: 13, cDNA SEQ ID NO: 12) expressed in Escherichia coli, His-Tag purified (protein, listed as Salvia uliginousa)
chain: MKQLHIALFPSMAHGHMIPMFELAKLFTSRGLKATIIATPAFAAPITKAQQSGLDVGLAITPFPPKGSSLPQNIIAFDQMTNPDLTTSFLRAMELLQEPVEAILQELHPDCLVSDMFLPWTADSAAKFQIPRLAFYGTSYFSRCVSEQVGDKPFNNVTSDSEPVLVPGLPQQIKFVRSQFSPVLLEETQNDFAKLFKQMTEAWKKTYGEVVNSFNELESDYANHYKNVIGRKAWEIGPLLLCSSSKGGEKNQQRGKESAIDEHECLAWLDSKNPNSVVYVCAGSVASFSQAQLRETAMGLEASGQNFVWVVRKNKEDDDDWLPVGFEERVGNRGLIIRGWAPQVMILNHAAVGAFVTHCGWNSTLEGVCAGLPMVTWPVFAEQFFNEKLVTEVLGTGVSVGNKRWMLRESEGVERDAVARAVEEIMVGGGAEEMRSRAENYKEMAKKAVEEGGSSYNNLNALIEELSNYVAPTIQDKN
modifications: His-tag
On to B1, for which the “product biosynthesized from apigenin 7-glucoside” value in assay [1] (substrate 500 ng/μg apigenin 7-glucoside, same condition) was “a flavone exhibiting the same retention time and the same absorption maximum as the purified apigenin 4′,7-diglucoside product was biosynthesized”. Besides, in assay [1] (substrate 500 ng/μg apigenin, UDP-glucose, 30° C., 90 minutes), the “product biosynthesized from apigenin” value was “a flavone exhibiting the same retention time and the same absorption maximum as the purified apigenin 4′,7-diglucoside product had been biosynthesized”. Further, the “reactivity to various flavonoid compounds and betanidine” value (shortened to “reactivity”) in assay [2] is “found to have an activity for not only apigenin and its glycosides but for luteolin and its glycosides and flavonol and its glycosides”.

B2: NmGT3: Nemophila glycosyltransferase (SEQ ID NO: 2, cDNA SEQ ID NO: 1) expressed in Escherichia coli, His-Tag purified (protein, listed as Nemophila menziesii)
chain: MPSILSNSAHILLFPFPTSGHIIPILDLANQLLARGLTITILITPANLTLLSTQLIELDRLGSLHTLVLPFPNPPNPSETSLAARVHASSQLSNTIIQWFQSHTSPPVAIVSDFFLGWTNSLASQLGIPRLVFWPSGVQRSSLVDYIWQNDQLSDSDHQIQDNSVISFPDVPNSPAYPKWQACGLSTQYKKGDPSWEFFKNGVLANTQSWGAIYNSFRDLEGVYIDYIKKKMGHGRVWAVGPLLPANDASKRGGSCVMPIDDVMTWLDTKTNSDNSVVYVCFGSRVELTTEQLDSLAAALEISGVHFILCVKLHQEISKEYEDRVAGRGLIIRGWAPQVAILRHRAVGAFLTHCGWNSILEGIAAGVVMLTWPMGADQFTNANLLVDELKVAMKACEGGDSNVPNPAMLANVLAESINGGRAERERVTELCDAALKAVQSGNGSSAKDLDSLTNQLNGLKVKIN
modifications: His-tag
With B2, the “HPLC peaks after reaction of crude enzyme with apigenin” value in assay [3] was “peaks other than that of the substrate were observed”. Further, in assay [4], the “product biosynthesized from apigenin 7-glucoside” value was “a flavone exhibiting the same retention time and the same absorption maximum as the purified apigenin 4′,7-diglucoside product was biosynthesized”; the “product biosynthesized from apigenin” value was “a flavone exhibiting the same retention time and the same absorption maximum as the purified apigenin 4′,7-diglucoside product had been biosynthesized”; the “product biosynthesized from apigenin 4′-glucoside” value was “a flavone exhibiting the same retention time and the same absorption maximum as the apigenin 4′,7-diglucoside purified product was biosynthesized”. For the same molecule, in assay [2], the “reactivity” value is “found to have an activity for not only apigenin and its glycosides but for luteolin and its glycosides and flavonol and its glycosides”.

B3: NmGT4: Nemophila glycosyltransferase (SEQ ID NO: 4, cDNA SEQ ID NO: 3) expressed in Escherichia coli, His-Tag purified (protein, listed as Nemophila menziesii)
chain: MAAQLHVVFFPFMAQGHLIPTLEMVKLFSSRGLKTTIVTTKFYAPAVTKSIEKTKHTGNQINIIIIKFPSAEVGLPEGSESLDKLKSPDMFMKFFKALSLLQEPFEQILQELSPDCIVSDMFFPWTTASAAKFDIPRFVFHGLSLFALCVSENMRFYKPFKNLGSESLDSEPVMLPDFPNQIEFSKVQVPEFEVGESKNEIMELLNQVKESEVKSYGIIINSFNELEKDYVDYYRNVWGRRAWLLGPLSLSNRDDEVKDQTDEHGSLKWLDSKKPDSVIYVCFGSVAPLSSSQLHEIALGLESSGQQFIWVVKEREDGEKWLPEGFEERIKDKGLIIRGWAPQVSILEHESTGGFVTHCGWNSVLEAVSAGVVMATLPTFAEQPFNEKLLTKVLKIGIPIGSPLSNRGKSGVKKEEIAEAMKGIMEGEEALEMRIRAKSLKEMAWKAVEEGGSSYNDLTSLIDGVKAYRSQSNKI
modifications: His-tag
Take B3: in assay [3], the “HPLC peaks after reaction of crude enzyme with apigenin” value is “peaks other than that of the substrate were observed”. Besides, in assay [4], the “product biosynthesized from apigenin 7-glucoside” value is “a flavone exhibiting the same retention time and the same absorption maximum as the purified apigenin 4′,7-diglucoside product was biosynthesized”; the “product biosynthesized from apigenin” value is “a flavone exhibiting the same retention time and the same absorption maximum as the purified apigenin 4′,7-diglucoside product had been biosynthesized”; the “product biosynthesized from apigenin 4′-glucoside” value is “a flavone exhibiting the same retention time and the same absorption maximum as the apigenin 4′,7-diglucoside purified product was biosynthesized”. Further, the “reactivity” value in assay [2] was “found to have an activity for not only apigenin and its glycosides but for luteolin and its glycosides and flavonol and its glycosides”.
